Test results reported in patent US20180037631A1 (Bristol-Myers Squibb, published 2018).
Positions count from the first letter of the chain named. Like-named read-outs stand apart in the source and are kept apart here.

B1: E103 (designed binder)
10Fn3 domain: MGVSDVPRDLEVVAATPTSLLISWTPANKSYQYYRITYGETGGNSPVQEFTVPGGVRTATISGLKPGVDYTITVYAVTNMMHVEYSEYPISINYRTEIDKPSQ
B2: E84 (designed binder)
10Fn3 domain: MGVSDVPRDLEVVAATPTSLLISWTLHRKNYQYYRITYGETGGNSPVQEFTVPGGVVTATISGLKPGVDYTITVYAVTDYYNPATHEYDYRTTPISINYRTEIDKPSQ
B3: E100 (designed binder)
10Fn3 domain: MGVSDVPRDLEVVAATPTSLLISWTPANKSYQYYRITYGETGGNSPVQEFTVPHDLVTATISGLKPGVDYTITVYAVTDHKPHADGPHTYHEYPISINYRTEIDKPSQ
B4: E104 (designed binder)
10Fn3 domain: B3 10Fn3 domain with T25D, P26A, A27G, N28A, K29V, S30T
B5: E11 (designed binder)
10Fn3 domain: B3 10Fn3 domain with H54Y, L56G, V57T
B6: E16 (designed binder)
10Fn3 domain: B3 10Fn3 domain with T25Q, P26V, A27P, N28R, K29P, S30M, H54Y, Y93S
B7: E102 (designed binder)
10Fn3 domain: B3 10Fn3 domain with Y93S
B8: E106 (designed binder)
10Fn3 domain: B3 10Fn3 domain with T25D, P26A, A27P, N28A, K29V, S30T, H54Y, L56V, V57Y, H80Y
B9: E10 (designed binder)
10Fn3 domain: MGVSDVPRDLEVVAATPTSLLISWYPGSRTYQYYRITYGETGGNSPVQEFTVPGGVRTATISGLKPGVDYTITVYAVTDYYHPATYEHEYHAHPISINYRTEIDKPSQ
B10: E85 (designed binder)
10Fn3 domain: MGVSDVPRDLEVVAATPTSLLISWTQGSTHYQYYRITYGETGGNSPVQEFTVPGMVYTATISGLKPGVDYTITVYAVTDYFDRSTHEYKYRTTPISINYRTEIDKPSQ
B11: E107 (designed binder)
10Fn3 domain: MGVSDVPRDLEVVAATPTSLLISWDSGRGSYQYYRITYGETGGNSPVQEFTVPYDVYTATISGLKPGVDYTITVYAVTDMMHVEYTEHPISINYRTEIDKPSQH
B12: E22 (designed binder)
10Fn3 domain: MGVSDVPRDLEVVAATPTSLLISWSTGRTTYQYYRITYGETGGNSPVQEFTVPHDLDTATISGLKPGVDYTITVYAVTDSYNPATHEYKYHQTPISINYRTEIDKPSQ
B13: E6 (designed binder)
10Fn3 domain: B12 10Fn3 domain with S25Q, T26V, G27P, T29P, T30M, H54Y, L56V, D57Y
B14: E13 (designed binder)
10Fn3 domain: B12 10Fn3 domain with S25Q, T26V, G27P, T29P, T30M, H54G, D55Q, L56V, D57Y
B15: E9 (designed binder)
10Fn3 domain: B12 10Fn3 domain with S25E, T26A, G27N, R28P, T29S, T30R, D57N
B16: E7 (designed binder)
10Fn3 domain: B12 10Fn3 domain with S25Q, T26V, G27P, T29P, T30M, H54Y, L56V, D57H
B17: E15 (designed binder)
10Fn3 domain: B12 10Fn3 domain with S25Q, T26V, G27P, T29P, T30M, D57R
B18: E12 (designed binder)
10Fn3 domain: B12 10Fn3 domain with S25Q, T26V, G27P, T29P, T30M, L56V, D57Y
B19: E8 (designed binder)
10Fn3 domain: B12 10Fn3 domain with S25Q, T26V, G27P, T29P, T30M, H54Y, D57T
B20: E14 (designed binder)
10Fn3 domain: B12 10Fn3 domain with S25Q, T26V, G27P, T29P, T30M, H54Y, L56V, D57T
B21: E79 (designed binder)
10Fn3 domain: MGVSDVPRDLEVVAATPTSLLISWQDTSSYHQYYRITYGETGGNSPVQEFTVPGGVRTATISGLKPGVDYTITVYAVTDYFNPSTHEYIYRTIPISINYRTEIDKPSQ
B22: E83 (designed binder)
10Fn3 domain: MGVSDVPRDLEVVAATPTSLLISWMFVGMSYQYYRITYGETGGNSPVQEFTVPYGVHTATISGLKPGVDYTITVYAVTDYFNPATHEYIYHVTPISINYRTEIDKPSQ
B23: E82 (designed binder)
10Fn3 domain: MGVSDVPRDLEVVAATPTSLLISWRVLVDMYQYYRITYGETGGNSPVQEFTVPGGVLTATISGLKPGVDYTITVYAVTDYKPHVDGPHTYYESPISINYRTEIDKPSQ
B24: E108 (designed binder)
10Fn3 domain: B23 10Fn3 domain with R25D, V26A, L27P, V28A, D29V, M30T, L57R, V84A, Y91H
B25: E99 (designed binder)
10Fn3 domain: B23 10Fn3 domain with R25D, V26A, L27P, V28T, D29S, M30R, L57R, V84A, Y91H, S93Y
B26: E110 (designed binder)
10Fn3 domain: B23 10Fn3 domain with R25D, V26A, L27G, V28A, D29V, M30T, L57R, V84A, Y91H
B27: E112 (designed binder)
10Fn3 domain: B23 10Fn3 domain with R25D, V26A, L27G, V28A, D29V, M30T, L57R, V84A, Y91H, S93Y
B28: E105 (designed binder)
10Fn3 domain: B23 10Fn3 domain with R25D, V26A, L27P, V28T, D29S, M30R, V56L, L57S, V84A, Y91H
B29: E17 (designed binder)
10Fn3 domain: B23 10Fn3 domain with R25Q, L27P, V28R, D29P, G55M, L57H, Y80H, V84A, Y91H
B30: E81 (designed binder)
10Fn3 domain: MGVSDVPRDLEVVAATPTSLLISWDNNSNSYQYYRITYGETGGNSPVQEFTVPYDLRTATISGLKPGVDYTITVYAVTDYKPHTEGEHTYHESPISINYRTEIDKPSQ
B31: E101 (designed binder)
10Fn3 domain: B3 10Fn3 domain with T25D, P26A, A27P, N28A, K29V, S30T, H80Y, Y93S
B32: E109 (designed binder)
10Fn3 domain: B3 10Fn3 domain with T25D, P26A, A27P, N28T, K29S, S30R, H80Y, Y93S
B33: E77 (designed binder)
10Fn3 domain: MGVSDVPRDLEVVAATPTSLLISWSSATRPYQYYRITYGETGGNSPVQEFTVPGGVRTATISGLKPGVDYTITVYAVTDFFNPTTHEYYYHTTPISINYRTEIDKPSQ
B34: E4 (designed binder)
10Fn3 domain: B21 10Fn3 domain with Q25H, D26E, T27R, S28D, S29G, Y30S, H31R, S84T, R91Q, I93T
B35: E78 (designed binder)
10Fn3 domain: B2 10Fn3 domain with T25S, L26V, H27E, K29S, N30V, V57R, A84S, D89N, R91L
B36: E80 (designed binder)
10Fn3 domain: B33 10Fn3 domain with A27S, T28H, P30R, G55S, R57A, F80Y, T84D, Y89L, T92A
B37: E23 (designed binder)
10Fn3 domain: MGVSDVPRDLEVVAATPTSLLISWQVPRPMYQYYRITYGETGGNSPVQEFTVPYDVITATISGLKPGVDYTITVYAVTDMMHVEYAEYPISINYRTEIDKPSQ
B38: E111 (designed binder)
10Fn3 domain: B37 10Fn3 domain with Q25D, V26A, R28T, P29S, M30R, Y54H, V56L, I57V, D79N, A86S

Columns and labels:
Test in all cases: cell-based or functional assay
[1] = target: T1, EGFR on the surface of human tumour cells (A431, H292) (human, UniProt P00533 25-1210)
[2] = target: T1, EGFR on the surface of human tumour …; remark: listed apart in the source
[3] = target: T1, EGFR on the surface of human tumour …; remark: listed apart in the source
[4] = target: T1, EGFR on the surface of human tumour …; remark: listed apart in the source

| Binder | % inhibition of EGFR phosphorylation at 100 nM binder, cell-based assay [1] [%] | % inhibition of EGFR phosphorylation at 100 nM binder, cell-based assay [3] [%] | other results |
| --- | --- | --- | --- |
| B1 | 76.3 | – | – |
| B2 | – | – | % inhibition of EGFR phosphorylation at 100 nM binder, cell-based assay [2]: 86.5% |
| B3 | 83.3 | – | – |
| B4 | 89.3 | – | – |
| B5 | – | 83.7 | – |
| B6 | – | 97.7 | – |
| B7 | 80 | – | – |
| B8 | 84 | – | – |
| B9 | – | 84.7 | – |
| B10 | – | – | % inhibition of EGFR phosphorylation at 100 nM binder, cell-based assay [2]: 89.3% |
| B11 | 75.8 | – | – |
| B12 | – | – | % inhibition of EGFR phosphorylation at 100 nM binder, cell-based assay [4]: 83.7% |
| B13 | – | 80 | – |
| B14 | – | 86.7 | – |
| B15 | – | 77.3 | – |
| B16 | – | 89.4 | – |
| B17 | – | 88.8 | – |
| B18 | – | 76.5 | – |
| B19 | – | 92.4 | – |

| Binder | % inhibition of EGFR phosphorylation at 100 nM binder, cell-based assay [1] [%] | % inhibition of EGFR phosphorylation at 100 nM binder, cell-based assay [3] [%] | other results |
| --- | --- | --- | --- |
| B20 | – | 80.4 | – |
| B21 | – | – | % inhibition of EGFR phosphorylation at 100 nM binder, cell-based assay [2]: 99.2% |
| B22 | – | – | % inhibition of EGFR phosphorylation at 100 nM binder, cell-based assay [2]: 90.7% |
| B23 | – | – | % inhibition of EGFR phosphorylation at 100 nM binder, cell-based assay [2]: 77.2% |
| B24 | 80 | – | – |
| B25 | 84.7 | – | – |
| B26 | 81.3 | – | – |
| B27 | 86.2 | – | – |
| B28 | 87 | – | – |
| B29 | – | 75.5 | – |
| B30 | – | – | % inhibition of EGFR phosphorylation at 100 nM binder, cell-based assay [2]: 75.1% |
| B31 | 90.9 | – | – |
| B32 | 90.9 | – | – |
| B33 | – | – | % inhibition of EGFR phosphorylation at 100 nM binder, cell-based assay [2]: 81.1% |
| B34 | – | – | % inhibition of EGFR phosphorylation at 100 nM binder, cell-based assay [2]: 94.3% |
| B35 | – | – | % inhibition of EGFR phosphorylation at 100 nM binder, cell-based assay [2]: 76.9% |
| B36 | – | – | % inhibition of EGFR phosphorylation at 100 nM binder, cell-based assay [2]: 89.6% |
| B37 | – | – | % inhibition of EGFR phosphorylation at 100 nM binder, cell-based assay [4]: 81.1% |
| B38 | 85.5 | – | – |
